{
  "source": "paper PMC7137382",
  "about": "“Structure of the Mycobacterium smegmatis α-maltose-1-phosphate synthase GlgM” (Acta Crystallographica. Section F, Structural Biology …, 2020)",
  "target": "the molecule itself",
  "experiment": "SEC; Superdex 200 10/300 GL, 50 mM bis-Tris pH 6.0, 5 mM MgCl2, 100 mM NaCl",
  "data": [
    {"protein": "α-maltose-1-phosphate synthase GlgM from Mycobacterium smegmatis (enzyme, Mycobacterium smegmatis mc2155, GlgM (glgM gene, MSMEG_5080) from M. smegmatis mc2155, synthesised with codon usage for E. coli; A TEV cleavage site lies between the N-terminal 6×His tag and the protein; also called M. smegmatis GlgM; source: E. coli BL21 Star, purified (HisTrap FF, imidazole gradient); not shown: 6×His, N-terminal, kept) MRVAMMTREYPPEVYGGAGVHVTELVAQLRKLCDVDVHCMGAPRDGAYVAHPDPTLRGANAALTMLSADLNMVNNAEAATVVHSHTWYTGLAGHLASLLYGVPHVLTAHSLEPLRPWKAEQLGGGYQVSSWVERTAVEAADAVIAVSSGMRDDVLRTYPALDPDRVHVVRNGIDTTVWYPAEPGPDESVLAELGVDLNRPIVAFVGRITRQKGVAHLVAAAHRFAPDVQLVLCAGAPDTPQIAEEVSSAVQQLAQARTGVFWVREMLPTHKIREILSAATVFVCPSVYEPLGIVNLEAMACATAVVASDVGGIPEVVADGRTGLLVHYDANDTEAYEARLAEAVNSLVADPDRAREYGVAGRERCIEEFSWAHIAEQTLEIYRKVSA", "values": [
      {"measurement": "stoichiometry N", "value": 2}
    ]}
  ]
}
